Source: patent publication US20220089776A1 (OREGON HEALTH AND SCIENCE UNIVERSITY, published 2022)

How the values were obtained:
[1] = target: T1, human blood protein factor XII (FXII) (human, UniProt P00748 20-615); experiment: cell-based or functional assay
T1 sequence (looked up): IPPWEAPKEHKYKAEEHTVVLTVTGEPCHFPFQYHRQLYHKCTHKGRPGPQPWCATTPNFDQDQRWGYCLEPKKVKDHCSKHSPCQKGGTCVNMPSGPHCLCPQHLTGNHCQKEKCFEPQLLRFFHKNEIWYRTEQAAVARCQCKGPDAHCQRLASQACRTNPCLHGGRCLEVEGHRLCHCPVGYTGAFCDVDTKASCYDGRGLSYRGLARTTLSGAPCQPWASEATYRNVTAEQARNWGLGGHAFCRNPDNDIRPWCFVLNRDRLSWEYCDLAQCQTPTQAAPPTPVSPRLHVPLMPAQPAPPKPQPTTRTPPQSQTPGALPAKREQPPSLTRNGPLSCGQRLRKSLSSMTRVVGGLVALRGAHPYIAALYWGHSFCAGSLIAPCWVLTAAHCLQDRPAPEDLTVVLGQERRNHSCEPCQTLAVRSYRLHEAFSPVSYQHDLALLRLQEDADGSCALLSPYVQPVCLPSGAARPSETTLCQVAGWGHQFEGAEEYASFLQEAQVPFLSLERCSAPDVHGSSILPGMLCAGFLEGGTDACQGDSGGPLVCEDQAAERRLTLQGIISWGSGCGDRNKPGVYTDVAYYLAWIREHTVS

[2] = target: T1, human blood protein factor XII (FXII); experiment: cell-based or functional assay; remark: listed apart in the source
[3] = target: T2, human activated FXII (FXIIa) (human, UniProt P00748 20-615, limits assumed); experiment: cell-based or functional assay
T2 sequence (looked up): T1 sequence (looked up)

rat FXII = target: T3, rat FXII (rat, UniProt D3ZTE0 20-595); experiment: Western blot of platelet-poor plasma, non-reduced SDS-PAGE
T3 construct: mature; Plasma protein
T3 sequence (looked up): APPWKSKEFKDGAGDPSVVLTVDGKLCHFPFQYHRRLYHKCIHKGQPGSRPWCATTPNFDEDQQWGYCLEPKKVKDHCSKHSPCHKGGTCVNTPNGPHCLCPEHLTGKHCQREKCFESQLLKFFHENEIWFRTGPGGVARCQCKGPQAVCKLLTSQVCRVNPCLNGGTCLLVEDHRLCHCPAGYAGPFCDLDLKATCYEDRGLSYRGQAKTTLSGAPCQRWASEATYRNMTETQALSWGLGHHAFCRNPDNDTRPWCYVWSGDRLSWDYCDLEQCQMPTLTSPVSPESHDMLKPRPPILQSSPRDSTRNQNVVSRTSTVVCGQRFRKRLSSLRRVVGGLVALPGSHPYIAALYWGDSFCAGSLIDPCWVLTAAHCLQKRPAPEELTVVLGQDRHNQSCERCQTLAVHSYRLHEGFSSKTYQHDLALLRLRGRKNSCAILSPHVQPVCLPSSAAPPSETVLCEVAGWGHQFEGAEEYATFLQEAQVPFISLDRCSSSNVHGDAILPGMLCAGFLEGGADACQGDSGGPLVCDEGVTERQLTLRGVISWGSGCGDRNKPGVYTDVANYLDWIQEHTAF

cattle FXII = target: T4, cattle FXII (cattle, UniProt P98140 20-612); experiment: Western blot of platelet-poor plasma; primary antibody murine 5C12
T4 construct: mature; Plasma protein
T4 sequence (looked up): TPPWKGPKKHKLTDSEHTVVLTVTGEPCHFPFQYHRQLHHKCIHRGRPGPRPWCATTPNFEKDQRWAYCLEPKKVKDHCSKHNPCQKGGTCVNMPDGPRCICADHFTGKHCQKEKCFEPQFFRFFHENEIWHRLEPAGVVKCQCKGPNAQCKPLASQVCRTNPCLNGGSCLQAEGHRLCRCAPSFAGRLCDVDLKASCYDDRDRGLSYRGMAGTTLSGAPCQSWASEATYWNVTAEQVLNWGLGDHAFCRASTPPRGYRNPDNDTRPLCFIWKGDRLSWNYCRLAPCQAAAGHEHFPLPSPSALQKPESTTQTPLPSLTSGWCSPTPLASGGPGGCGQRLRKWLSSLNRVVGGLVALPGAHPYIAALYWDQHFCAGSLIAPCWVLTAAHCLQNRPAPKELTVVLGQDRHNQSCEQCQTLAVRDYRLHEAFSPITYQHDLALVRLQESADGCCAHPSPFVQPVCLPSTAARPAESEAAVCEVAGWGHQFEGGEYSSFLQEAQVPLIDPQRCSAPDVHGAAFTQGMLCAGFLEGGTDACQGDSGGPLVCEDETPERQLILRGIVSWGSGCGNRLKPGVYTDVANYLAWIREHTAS
Text: (§1) FIG. 3A-3C: Species specificity of 5C12. (FIG. 3A) Western blots of platelet poor plasmas from different species (indicated above each lane) size fractionated by SDS-PAGE […]. Species included in alphabetical order: African green monkey, baboon, beagle, cat, cattle, chicken, cynomolgus monkey, dog, elephant, giant anteater, horse, human, human deficient in FXII, llama, marmoset, pig, rabbit, raccoon, rat, red kangaroo, rhesus macaque and tiger. Human plasma and human deficient in FXII plasma were used in all gels as a positive and negative control, respectively. […] 5C12 also recognizes both the alpha (comprising both the light and heavy chain of FXII) and the beta (comprising only the light chain and a nonapeptide fragment of the heavy chain) form of activated FXII (FXIIa) (FIG. 3C). The primary antibody for all Western blots was murine 5C12, the secondary antibody was goat-anti-mouse polyclonal.

mouse FXII = target: T5, mouse FXII (mouse, UniProt Q80YC5 20-597); experiment: Western blot of recombinant mouse FXII, non-reduced and reduced SDS-PAGE; primary antibody murine 5C12
T5 construct: mature; Plasma protein; Tested only in the aPTT assay
T5 sequence (looked up): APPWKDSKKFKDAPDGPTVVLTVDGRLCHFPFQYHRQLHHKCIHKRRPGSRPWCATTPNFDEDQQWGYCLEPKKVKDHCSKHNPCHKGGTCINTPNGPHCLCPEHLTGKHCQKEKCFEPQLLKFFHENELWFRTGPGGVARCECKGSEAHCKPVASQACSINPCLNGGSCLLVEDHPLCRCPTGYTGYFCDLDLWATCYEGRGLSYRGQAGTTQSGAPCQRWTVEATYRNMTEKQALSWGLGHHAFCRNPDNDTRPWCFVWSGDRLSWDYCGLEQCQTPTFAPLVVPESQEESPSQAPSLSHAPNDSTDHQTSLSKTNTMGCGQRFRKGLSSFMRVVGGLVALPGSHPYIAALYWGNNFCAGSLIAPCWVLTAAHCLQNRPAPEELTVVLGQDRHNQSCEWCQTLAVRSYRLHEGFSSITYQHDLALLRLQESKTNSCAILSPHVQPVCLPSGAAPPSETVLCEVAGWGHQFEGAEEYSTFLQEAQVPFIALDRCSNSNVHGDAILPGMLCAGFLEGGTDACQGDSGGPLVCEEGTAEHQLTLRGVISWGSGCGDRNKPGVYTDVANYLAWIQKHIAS
Text: as §1

B1: mouse monoclonal antibody 5C12 (antibody, mouse IgG1, kappa, V domains shown)
VH: DVQLQESGPDLVKPSQSLSLTCTVTGYSITSGYSWHWIRQFPGNNLEWMGYIQYSGNTNSNPSLKSRISITRDTSKNQFFLHLNSVTTEDTATYYCARWGSFDYWGQGTTLTVSS
VL: QIVLTQSPAIMSASPGEKVTMTCSASSSVNYMHWYQQKSGTSPKRWIYDTSKLASGVPARFSGSGSGTSYSLTISSMEAGDAATYYCQQWSGNPPTFGGGTILEIKR
notes: Purified from hybridoma; also called AB053; 5C12 MAb
With B1 the “IC50 (read off the curve): FXIIa amidolytic activity after activation of 50 nM FXII with short polyphosphates, PK and HK” value [1] was about 10 nM, the “IC50 (read off the curve): FXIIa amidolytic activity after activation of 40 nM FXII with 1 µg/ml dextran sulfate” value [2] was about 6 nM and the “IC50 (read off the curve): amidolytic activity of 20 nM FXIIa” value [3] was about 7 nM. B1: no binding (rat FXII); no binding (cattle FXII); no binding (mouse FXII).
